Test results published in patent US20190359711A1.

Molecular target: CD3 on human pan T cells (human) (UniProt P07766)
Test: flow cytometry, saturation binding on human pan T cells (KdT)

Chain of CD3 on human pan T cells (human) (P07766 23-207 limits assumed): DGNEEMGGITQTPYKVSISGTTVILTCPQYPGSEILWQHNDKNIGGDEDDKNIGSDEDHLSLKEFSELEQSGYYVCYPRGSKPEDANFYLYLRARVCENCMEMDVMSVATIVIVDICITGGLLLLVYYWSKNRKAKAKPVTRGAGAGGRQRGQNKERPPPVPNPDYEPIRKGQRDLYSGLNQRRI

Kd: 5.6 nM
Substance: AlexaFluor488 SP34-2 anti-CD3 (antibody)
